The supplement of paper PMC10567573
± gives the standard deviation.

Experiment: protein stability index of a GFP-peptide fusion (GPS, HEK-293T) (PSI 1-6); higher = more stable
[1] = treatment: DMSO, c terminus: a fixed tail appended
[2] = treatment: MLN4924 1 uM, 8 h, c terminus: a fixed tail appended
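Note: 24-mer peptide tiles fused after GFP, lentivirally expressed, FACS-sorted into six equal bins by GFP/DsRed ratio, decoded by Illumina sequencing, PSI is the read-weighted mean bin number.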

Row | Sequence | protein stability index [1] | protein stability index [2] | protein stability index (treatment: DMSO, c terminus: native) | protein stability index (treatment: MLN4924 1 uM, 8 h, c terminus: native)
1 | VWMDDFKSHVYMAWNIPMSNPGVD [GALNT9] | 2.21 ± 0.3 | 2 ± 0.2 |  | 
2 | VYIFATCLGLSYDGLLGDNQIMPK [MAGEA6] | 2.82 ± 0.52 | 2.44 ± 0.44 |  | 
3 | VYSNTIQSIIAIIRAMGRLKIDFG [GNAI1] | 2.7 ± 0.53 | 2.13 ± 0.29 |  | 
4 | VYVSNMTDKLVTPGKYFSAAEYHA [IQUB] | 2.14 ± 0.47 | 1.96 ± 0.15 |  | 
5 | WCSVAYWEHRTRVGRLYAVYDQAV [SMAD6] | 2.44 ± 0.43 | 2.18 ± 0.16 |  | 
6 | WHDTCFVCAICQINLEGKTFYSKK [PDLIM7] | 2.24 ± 0.29 | 2.21 ± 0.15 |  | 
7 | WKITIYDQENFQGKRMEFTSSCPN [CRYBA1] | 2.26 ± 0.38 | 2.15 ± 0.23 |  | 
8 | WTAPLVMRTTNLDNRCKLFDSPSL [CDC25A] | 2.4 ± 0.17 | 2.52 ± 0.28 |  | 
9 | YAYSNGIDYKTTTILLDGRRVRLE [RAB40C] | 2.68 ± 0.3 | 2.56 ± 0.34 |  | 
10 | YDCGEDFYRSTAPSEDIWKKFELV [MYCL] | 2.96 ± 0.19 | 3.33 ± 0.22 |  | 
11 | YDFIVTKARGKSGPLFNFDVHDDV [FAM50A] | 2.65 ± 0.23 | 2.78 ± 0.45 |  | 
12 | YDRRVIRGNTYALQTGPLLGRPDS [RSPH3] | 3.29 ± 0.24 | 3.56 ± 0.25 |  | 
13 | YGFYDECLRKYGNANVWKYFTDLF [PPP2CA] | 2.5 ± 0.21 | 2.67 ± 0.38 |  | 
14 | YGNGMRKSPEMPVILEVSLEGSHD [RTP4] | 3.58 ± 0.26 | 3.97 ± 0.41 |  | 
15 | YHSQDELGGFSHWGRLTSYSGGGY [PKD2L1] | 2.66 ± 0.6 | 2.52 ± 0.34 |  | 
16 | YKCSWCGKSFSQNTNLHTHQRTHT [ZNF75A] | 4.65 ± 0.45 | 4.29 ± 0.54 |  | 
17 | YKEKFGITDLPRIDVSKREPPPVK [EFHC1] | 3.67 ± 0.38 | 4.04 ± 0.23 |  | 

Row | Sequence | protein stability index [1] | protein stability index [2] | protein stability index (treatment: DMSO, c terminus: native) | protein stability index (treatment: MLN4924 1 uM, 8 h, c terminus: native)
18 | YKLVGSPPWKEAFRQRCLERMRNS [RPAIN] | 2.74 ± 0.32 | 2.98 ± 0.52 |  | 
19 | YKQLGSAGEGLPQVYYFGPCGKYN [CSNK1G1] | 3.05 ± 0.65 | 2.16 ± 0.2 |  | 
20 | YKRQEESGAAASLNVDAAVQQWLQ [CHIT1] | 4.22 ± 0.086 | 4.1 ± 0.094 |  | 
21 | YLAHASDVLENAFAPLLDEQYDLA [GOLPH3] | 2.83 ± 0.21 | 3.12 ± 0.36 |  | 
22 | YLAMLERFQDGDNILEKEVLPPIH [FEM1B] | 2.73 ± 0.19 | 2.93 ± 0.24 |  | 
23 | YLELDRLVWRNSIRSSFISSLSFF [FBXO39] | 2.86 ± 0.37 | 2.95 ± 0.45 |  | 
24 | YLFWEFATDNYDIGFGVYFEWTDS [ACBD3] | 3.14 ± 0.85 | 1.93 ± 0.72 |  | 
25 | YLLPDTCFRMQINHAIDIICGFLK [OAS1] | 2.27 ± 0.3 | 2.1 ± 0.33 |  | 
26 | YLYFLFCPTLIYRETYPRTPYVRW [SOAT2] | 2.67 ± 0.76 | 2.58 ± 0.29 |  | 
27 | YPQDLPRPLRSREFPQFEPQRYPA [TRAF3IP2] | 3.93 ± 0.3 | 3.6 ± 0.41 |  | 
28 | YQGGPPRPPMGMRPPVMSQGGRY [ZNF207] |  |  | 2.56 ± 0.27 | 2.84 ± 0.3
29 | YRVWKKMLASVESVPFSFDPNTAA [TRIM35] | 2.06 ± 0.28 | 2.3 ± 0.14 |  | 
30 | YSEEECKQYKAVVYSNTIQSIIAI [GNAI1] | 2.35 ± 0.63 | 2.06 ± 0.33 |  | 
31 | YTSQITVEEGNVQTLLPAACLLQL [KLHL20] | 2.28 ± 0.061 | 2.3 ± 0.25 |  | 
32 | YVHHQALLDVKNIAHQNKFGEDMP [HDAC6] | 2.83 ± 0.54 | 3.49 ± 0.57 |  | 
33 | YWGSPEEQSLLSRWNPWSTEVPYA [TPRG1] | 2.09 ± 0.14 | 2.23 ± 0.28 |  | 
